The target of this data set is Smc5/6 hexamer (wild type) (Saccharomyces cerevisiae W303, UniProt Q08204;Q12749;Q07913;P38632;Q05541;P43124 1-1093;1-1114;1-336;1-267;1-303;1-402). Briefly: EMSA.

B1: DB20 20-bp DNA (dsDNA)
DNA 1: TATTTACTTTATGTTCATTT
DNA 2: AAATGAACATAAAGTAAATA
For the molecule B1, the binding result was “binds”.

Values taken from publication PMC13627713.
